This note sets out measurements from article PMC3948627.

For orientation: stoichiometry N means a count of units in the complex or per binding partner.

The target of the experiment is Aha1 I64X (pAzpa at position 64) with C-terminal V5/His6-tag (S. cerevisiae) (UniProt Q12449). Nature of the experiment: cross-linking; in vivo photo-cross-linking (pAzpa, UV 365 nm), crosslink product immunoprecipitated by anti-V5, separated by 6% SDS-PAGE, band digested and identified by MALDI-TOF/MS.

In turn, “Aha1 I64X (pAzpa at position 64) with C-terminal V5/His6-tag (from UniProt Q12449 1-350)” returned a stoichiometry N of 2.
